In the supplement of paper PMC9112550, “Optimization of the antimicrobial peptide Bac7 by deep mutational scanning” (BMC Biology, 2022):

Test system: Escherichia coli TOP10
Experiment: shrunken log2 fold change of peptide-encoding DNA abundance (4.5 h post-induction vs induction); higher = less antimicrobial activity (less host growth inhibition)
Conditions: time post-induction: 4.5 h; library: site-saturation at positions 5, 18, 19, 20
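Also: peptides expressed intracellularly from a pBAD plasmid library in pooled LB shake-flask culture, induced with 0.3% L-arabinose, DNA abundance read by NGS, three biological replicates, DESeq2 with apeglm shrinkage.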

Row | Sequence | shrunken log2 fold change
1 | RRIRQRPPRLPRPRPRPQPQPRP | 0.0436
2 | RRIRARPPRLPRPRPRPTMSPRP | 0.159
3 | RRIRPRPPRLPRPRPRPHEMPRP | -0.142
4 | RRIRWRPPRLPRPRPRPHMVPRP | -0.069
5 | RRIRGRPPRLPRPRPRPWGIPRP | 0.0344
6 | RRIRTRPPRLPRPRPRPFRGPRP | -0.175
7 | RRIRMRPPRLPRPRPRPYVSPRP | 0.013
8 | RRIRWRPPRLPRPRPRPYEWPRP | 0.0229
9 | RRIRPRPPRLPRPRPRPFAQPRP | -0.0885
10 | RRIRCRPPRLPRPRPRPCYRPRP | -0.256
11 | RRIRIRPPRLPRPRPRPDLHPRP | 0.0268
12 | RRIRMRPPRLPRPRPRPQAPPRP | 0.718
13 | RRIRNRPPRLPRPRPRPWLAPRP | -0.254
14 | RRIRFRPPRLPRPRPRPDPWPRP | 0.0822
15 | RRIRDRPPRLPRPRPRPYVSPRP | -0.032
16 | RRIRHRPPRLPRPRPRPWAFPRP | 0.0477
17 | RRIRKRPPRLPRPRPRPMFGPRP | 0.112
18 | RRIRNRPPRLPRPRPRPCVGPRP | -0.129
19 | RRIRFRPPRLPRPRPRPIMLPRP | -0.205
20 | RRIRCRPPRLPRPRPRPKHYPRP | -0.518
21 | RRIRGRPPRLPRPRPRPFQSPRP | -0.00674
22 | RRIRTRPPRLPRPRPRPYDLPRP | -0.14
23 | RRIRIRPPRLPRPRPRPKPWPRP | 0.192
24 | RRIRCRPPRLPRPRPRPICTPRP | -0.307
25 | RRIRTRPPRLPRPRPRPSYAPRP | -0.274

Row | Sequence | shrunken log2 fold change
26 | RRIRERPPRLPRPRPRPWVCPRP | 0.0297
27 | RRIRTRPPRLPRPRPRPMASPRP | 0.0589
28 | RRIRWRPPRLPRPRPRPFKWPRP | -0.223
29 | RRIRVRPPRLPRPRPRPLLEPRP | 0.0931
30 | RRIRRRPPRLPRPRPRPNKEPRP | -0.0865
31 | RRIRFRPPRLPRPRPRPHMIPRP | -0.395
32 | RRIRSRPPRLPRPRPRPSEIPRP | 0.0398
33 | RRIRCRPPRLPRPRPRPQAFPRP | -0.00585
34 | RRIRNRPPRLPRPRPRPCCKPRP | -0.274
35 | RRIRYRPPRLPRPRPRPNKCPRP | -0.269
36 | RRIRPRPPRLPRPRPRPKDGPRP | 0.0462
37 | RRIRLRPPRLPRPRPRPAGNPRP | 0.116
38 | RRIRSRPPRLPRPRPRPRPRPRP | 0.815
39 | RRIRIRPPRLPRPRPRPCSSPRP | 0.00235
40 | RRIRSRPPRLPRPRPRPPHLPRP | -0.00867
41 | RRIRMRPPRLPRPRPRPWKMPRP | 0.0322
42 | RRIRYRPPRLPRPRPRPYLSPRP | -0.274
43 | RRIRARPPRLPRPRPRPIGSPRP | -0.0508
44 | RRIRLRPPRLPRPRPRPWDWPRP | 0.185
45 | RRIRLRPPRLPRPRPRPFREPRP | -0.0266
46 | RRIRRRPPRLPRPRPRPYDAPRP | -0.635
47 | RRIRYRPPRLPRPRPRPGMSPRP | -0.137
48 | RRIRRRPPRLPRPRPRPQDWPRP | 0.171
49 | RRIRPRPPRLPRPRPRPFYIPRP | -0.312
50 | RRIRNRPPRLPRPRPRPWLNPRP | -0.00264

Row | Sequence | shrunken log2 fold change
51 | RRIRCRPPRLPRPRPRPHMWPRP | -0.555
52 | RRIRMRPPRLPRPRPRPCDHPRP | 0.00316
53 | RRIRARPPRLPRPRPRPRLWPRP | 0.724
54 | RRIRKRPPRLPRPRPRPASKPRP | -0.25
55 | RRIRMRPPRLPRPRPRPMWHPRP | 0.208
56 | RRIRLRPPRLPRPRPRPESWPRP | 0.162
57 | RRIRWRPPRLPRPRPRPKFWPRP | 0.0806
58 | RRIRDRPPRLPRPRPRPCFFPRP | 0.304
59 | RRIRWRPPRLPRPRPRPELQPRP | 0.326
60 | RRIRARPPRLPRPRPRPFWMPRP | 1.14
61 | RRIRTRPPRLPRPRPRPYKRPRP | -0.29
62 | RRIRCRPPRLPRPRPRPYRAPRP | -0.383
63 | RRIRVRPPRLPRPRPRPEIQPRP | 0.349
64 | RRIRPRPPRLPRPRPRPGQRPRP | 0.44
65 | RRIRSRPPRLPRPRPRPSVHPRP | -0.352
66 | RRIRERPPRLPRPRPRPQKDPRP | -0.298
67 | RRIRRRPPRLPRPRPRPVTGPRP | 0.0301
68 | RRIRRRPPRLPRPRPRPIIPPRP | -0.36
69 | RRIRNRPPRLPRPRPRPDDPPRP | -0.0062
70 | RRIRYRPPRLPRPRPRPMLLPRP | -0.871
71 | RRIRHRPPRLPRPRPRPNKVPRP | -0.238
72 | RRIRPRPPRLPRPRPRPVLRPRP | 0.303
73 | RRIRCRPPRLPRPRPRPMFGPRP | -0.556
74 | RRIRERPPRLPRPRPRPMEIPRP | -0.221
75 | RRIRFRPPRLPRPRPRPRQFPRP | -0.0547
